Data as given in the Immune Epitope Database (IEDB).

Columns and labels:
HLA-B*15:01 [1] = experiment: IEDB peptide-MHC binding, purified MHC/direct/fluorescence; filed as Kd, often an IC50 or EC50 that approximates it; ≥ and ≤ were set here for values at or beyond the usual limits of such assays
HLA-B*07:02 = experiment: as above
HLA-A*02:01 = experiment: as above
HLA-A*02:19 [2] = experiment: as above
HLA-B*46:01 [3] = experiment: as above
HLA-B*35:01 = experiment: as above
HLA-A*26:01 [4] = experiment: as above
HLA-A*02:11 = experiment: as above
HLA-B*27:03 [5] = experiment: as above
HLA-B*18:01 [6] = experiment: as above
HLA-B*51:01 [7] = experiment: as above
HLA-A*03:01 [8] = experiment: as above
HLA-B*57:01 [9] = experiment: as above
HLA-A*69:01 = experiment: as above
HLA-A*02:16 = experiment: as above
HLA-A*02:03 = experiment: as above
HLA-A*24:03 = experiment: as above
HLA-B*39:01 [10] = experiment: as above
HLA-A*02:12 [11] = experiment: as above
HLA-A*68:02 [12] = experiment: IEDB peptide-MHC binding, purified MHC/competitive/fluorescence; filed as Kd, often an IC50 or EC50 that approximates it; ≥ and ≤ were set here for values at or beyond the usual limits of such assays
HLA-B*57:01 [13] = experiment: IEDB peptide-MHC binding, purified MHC/competitive/radioactivity; filed as Kd, often an IC50 or EC50 that approximates it; ≥ and ≤ were set here for values at or beyond the usual limits of such assays
HLA-B*15:01 [14] = experiment: as above; conditions: source organism: Dengue virus 2 Jamaica/1409/1983
HLA-A*02:19 [15] = experiment: IEDB peptide-MHC binding, purified MHC/competitive/fluorescence; filed as Kd, often an IC50 or EC50 that approximates it; ≥ and ≤ were set here for values at or beyond the usual limits of such assays; conditions: source organism: Cryptosporidium parvum Iowa II
HLA-B*46:01 [16] = experiment: as above; conditions: source organism: Cryptosporidium parvum Iowa II
HLA-A*26:01 [17] = experiment: as above; conditions: source organism: Cryptosporidium parvum Iowa II
HLA-B*27:03 [18] = experiment: as above; conditions: source organism: Cryptosporidium parvum Iowa II
HLA-B*18:01 [19] = experiment: as above; conditions: source organism: Cryptosporidium parvum Iowa II
HLA-B*51:01 [20] = experiment: as above; conditions: source organism: Cryptosporidium parvum Iowa II
HLA-A*03:01 [21] = experiment: as above; conditions: source organism: Cryptosporidium parvum Iowa II
HLA-B*39:01 [22] = experiment: as above; conditions: source organism: Cryptosporidium parvum Iowa II
HLA-A*02:12 [23] = experiment: as above; conditions: source organism: Cryptosporidium parvum Iowa II
HLA-A*29:02 [24] = experiment: as above; conditions: source organism: Cryptosporidium parvum Iowa II
HLA-A*01:01 = experiment: as above; conditions: source organism: Influenza A virus (A/swine/Finistere/127/99(H3N2))
HLA-B*15:17 = experiment: IEDB peptide-MHC binding, purified MHC/direct/fluorescence; filed as Kd, often an IC50 or EC50 that approximates it; ≥ and ≤ were set here for values at or beyond the usual limits of such assays; conditions: source organism: Burkholderia mallei ATCC 23344
HLA-A*68:02 [25] = experiment: as above
HLA-A*29:02 [26] = experiment: as above; conditions: source organism: Burkholderia mallei ATCC 23344
HLA-A*68:02 [27] = experiment: IEDB peptide-MHC binding, purified MHC/competitive/radioactivity; filed as Kd, often an IC50 or EC50 that approximates it; ≥ and ≤ were set here for values at or beyond the usual limits of such assays; conditions: source organism: Dengue virus 1 Brazil/97-11/1997
[28] = source organism: Vibrio parahaemolyticus AQ3810
[29] = source organism: Mycobacterium tuberculosis str. Haarlem
[30] = source organism: Dengue virus 2 Jamaica/1409/1983
[31] = source organism: Cryptosporidium parvum Iowa II
[32] = source organism: Burkholderia mallei ATCC 23344
[33] = source organism: Burkholderia mallei

Measured: Kd

EASTWLDIF
≥ 20 µM: HLA-B*07:02; [28] | HLA-A*02:01; [28] | HLA-A*02:19 [2]; [28] | HLA-B*46:01 [3]; [28] | HLA-A*26:01 [4]; [28] | HLA-A*02:11; [28] | HLA-B*27:03 [5]; [28] | HLA-B*18:01 [6]; [28] | HLA-B*51:01 [7]; [28] | HLA-A*03:01 [8]; [28] | HLA-B*57:01 [9]; [28] | HLA-A*69:01; [28] | HLA-A*02:16; [28] | HLA-A*02:03; [28] | HLA-A*24:03; [28] | HLA-B*39:01 [10]; [28] | HLA-A*02:12 [11]; [28]
16 nM: HLA-B*35:01; [28]
174 nM: HLA-B*15:01 [1]; [28]

EILWDVIPF
6.5 µM: HLA-B*07:02; [29]
≥ 20 µM: HLA-A*02:01; [29] | HLA-A*02:19 [2]; [29] | HLA-B*46:01 [3]; [29] | HLA-A*26:01 [4]; [29] | HLA-B*27:03 [5]; [29] | HLA-B*51:01 [7]; [29] | HLA-A*03:01 [8]; [29] | HLA-B*57:01 [9]; [29] | HLA-A*02:16; [29] | HLA-A*02:03; [29] | HLA-A*24:03; [29] | HLA-B*39:01 [10]; [29] | HLA-A*02:12 [11]; [29]
191 nM: HLA-B*15:01 [1]; [29]
3 nM: HLA-B*35:01; [29]

ESAEVEVYV
≤ 0.1 nM: HLA-A*68:02 [12]; source organism: Vibrio vulnificus YJ016

ISQGAGWSL
472 nM: HLA-B*57:01 [13]; [30]

ISRMLINRF
178 nM: HLA-B*15:01 [14]
15.9 nM: HLA-B*57:01 [13]; [30]

KIVPLPPMY
≥ 20 µM: HLA-A*02:19 [15] | HLA-B*46:01 [16] | HLA-A*26:01 [17] | HLA-B*27:03 [18] | HLA-B*18:01 [19] | HLA-B*51:01 [20] | HLA-B*39:01 [22] | HLA-A*02:12 [23]
277 nM: HLA-A*29:02 [24]
796 nM: HLA-A*03:01 [21]

LASIDLKY
3.46 µM: HLA-A*01:01

LPLESCFGV
0.355 µM: HLA-B*51:01 [7]; [31]
≥ 20000 nM: HLA-B*15:01 [1]; [31]
≥ 20 µM: HLA-A*02:19 [2]; [31] | HLA-B*46:01 [3]; [31] | HLA-A*26:01 [4]; [31] | HLA-A*02:11; [31] | HLA-B*27:03 [5]; [31] | HLA-B*18:01 [6]; [31] | HLA-A*03:01 [8]; [31] | HLA-B*57:01 [9]; [31] | HLA-A*02:03; [31] | HLA-A*24:03; [31] | HLA-A*02:12 [11]; [31]

LTSRENLLLG
541 nM: HLA-B*57:01 [13]; source organism: Dengue virus 3 Martinique/1243/1999

QHAWPLPPL
≥ 20000 nM: HLA-B*15:01 [1]; [32]
≥ 20 µM: HLA-B*15:17 | HLA-A*02:01; [32] | HLA-A*02:19 [2]; [32] | HLA-B*46:01 [3]; [32] | HLA-A*26:01 [4]; [32] | HLA-B*27:03 [5]; [32] | HLA-B*18:01 [6]; [32] | HLA-B*51:01 [7]; [32] | HLA-A*03:01 [8]; [32] | HLA-B*57:01 [9]; [32] | HLA-A*02:16; [32] | HLA-A*68:02 [25]; [32] | HLA-A*02:03; [32] | HLA-A*02:12 [11]; [32] | HLA-A*29:02 [26]

QTSGTTTIFA
454 nM: HLA-B*57:01 [13]; source organism: Dengue virus 1 Brazil/97-11/1997
2.12 nM: HLA-A*68:02 [27]

RVVRPWGSY
≥ 20 µM: HLA-A*02:01; [33] | HLA-A*02:19 [2]; [33] | HLA-B*46:01 [3]; [33] | HLA-A*26:01 [4]; [33] | HLA-A*02:11; [33] | HLA-B*27:03 [5]; [33] | HLA-B*18:01 [6]; [33] | HLA-B*51:01 [7]; [33] | HLA-A*69:01; [33] | HLA-A*02:16; [33] | HLA-A*68:02 [25]; [33] | HLA-A*02:03; [33] | HLA-A*24:03; [33] | HLA-B*39:01 [10]; [33] | HLA-A*02:12 [11]; [33]

STYWLMAGL
0.5 nM: HLA-A*68:02 [12]; source organism: Yersinia pestis Nepal516
